Some targets named below: HLA-DRB1*0701 (human); HLA-DRB1*0301 (human); HLA-DRB1*0101 (human); HLA-DRB1*0401 (human).
Common to all, as to assay: cell-based or functional assay

With TIRLTAADHRQLQLS [NY-ESO-1 peptide, amino acids 134-148 (TIRLTAADHRQLQLS; SEQ ID NO: 2)], the “Responding patients (%)” value was determined as 14.3% with HLA-DRB1*0701, 10% with HLA-DRB1*0301, 28.6% in the experiment with HLA-DRB1*0101 and 28.6% in the experiment with HLA-DRB1*0401. The “Responding patients (n = 38)” value was determined as 1 patients with HLA-DRB1*0701, 1 patients with HLA-DRB1*0301, 2 patients in the experiment with HLA-DRB1*0101 and 2 patients with HLA-DRB1*0401.

Source of the values: US20080187548A1 (LUDWIG INSTITUTE FOR CANCER RESEARCH, published 2008).
